Laboratory results as given in paper PMC4824444.

Tests used:
[1] = molecular target: kappa-opioid peptide (KOP) receptor (human (endogenous in THP-1)) (UniProt P41145)
[2] = molecular target: kappa-opioid peptide (KOP) receptor (human (endogenous in THP-1)) (UniProt P41145); remark: listed apart in the source

Chain of UniProt P41145 (P41145 whole entry): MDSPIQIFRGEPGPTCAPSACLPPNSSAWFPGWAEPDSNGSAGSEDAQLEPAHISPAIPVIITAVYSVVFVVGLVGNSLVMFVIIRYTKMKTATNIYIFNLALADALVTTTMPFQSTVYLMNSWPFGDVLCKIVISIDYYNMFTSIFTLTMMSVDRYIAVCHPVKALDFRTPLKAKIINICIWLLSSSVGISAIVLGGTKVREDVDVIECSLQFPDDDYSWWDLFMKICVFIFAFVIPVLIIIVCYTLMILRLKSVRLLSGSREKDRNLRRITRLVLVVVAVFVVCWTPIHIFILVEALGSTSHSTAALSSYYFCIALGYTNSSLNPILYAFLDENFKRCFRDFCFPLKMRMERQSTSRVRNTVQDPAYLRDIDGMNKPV

inhibition of LPS-stimulated NF-κB/p65 nuclear translocation in differentiated THP-1 cells by DYN 1-7 at 10 nM, relative to the LPS control group; reversed by the KOP receptor antagonist ML-190 (1 μM) [1]: 44% | reduction of LPS-stimulated IL-1β and TNF-α release from differentiated THP-1 cells by DYN 1-7 (0.1 μM, 1 nM, 10 pM; 24 hr; AlphaLISA); reversed by ML-190 at 10 pM (IL-1β, TNF-α) and at 1 nM (TNF-α) [2]: 15 to 30%
Substance: Dynorphin 1-7 (peptide)
